What is called IC50 is the concentration needed to halve the response being measured. Usually EC50 stands for the concentration needed to bring the measured effect to its halfway point. In general, Kd refers to the equilibrium constant for the complex coming apart. As a reminder, the koff is the first-order rate constant of dissociation. What is called kon is the second-order rate constant of association. The term EC50 (read off the curve) denotes the concentration that produces a half-maximal response. Lower therefore signals higher potency in that assay.

Test [1] has as its target DII4-His (C-terminal His-tagged human DII4, amino acid 27-524) (human, UniProt Q9NR61 25-522). The test is described as follows: cell-based or functional assay.
The target of another test is VEGF (UniProt P15692-4 27-191, limits assumed). Description: cell-based or functional assay.
VEGF, sequence (P15692 other isoform, or with tags, fused parts or gaps limits assumed): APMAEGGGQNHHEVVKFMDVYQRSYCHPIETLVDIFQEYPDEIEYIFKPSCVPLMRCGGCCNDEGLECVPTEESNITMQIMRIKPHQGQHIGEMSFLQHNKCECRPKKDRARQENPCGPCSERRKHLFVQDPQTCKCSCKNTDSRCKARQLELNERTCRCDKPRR
Test [2] addresses T1, recombinant human DLL4 (human, UniProt Q9NR61 25-522).
T1 construct: also called rhDLL4; hDLL4
Description: competition ELISA, biot-hDLL4 to coated hNotch1-Fc. The source says:
Residual binding of biotinylated human DII4 is detected using horseradish peroxidase (HRP) conjugated extravidin (Sigma, St. Louis, Mo., USA) (FIG. 3 A-C). Human DII4 is biotinylated as described above.
Background: An ELISA detects its analyte on a solid surface through an enzyme-linked reagent.

The target in another test is T2, human Jagged-1 (human, UniProt P78504 34-1067, limits assumed).
T2 construct: also called hJagged-1; hJAG1
The test is described as follows: binding ELISA on coated recombinant human Jagged-1, OD 405 nm. A digest of the protocol:
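Plates coated overnight at 4° C with 1 μg/mL ligand, blocked with 1% casein in PBS. VHH dilution series applied; bound VHH detected via mouse anti-myc then anti-mouse-AP conjugate.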

The target of the next test is T3, recombinant mouse DLL4 (mouse, UniProt Q9JI71 27-532).
T3 construct: extracellular domain; also called rmDLL4; mDLL4
T3 sequence (Q9JI71 27-532): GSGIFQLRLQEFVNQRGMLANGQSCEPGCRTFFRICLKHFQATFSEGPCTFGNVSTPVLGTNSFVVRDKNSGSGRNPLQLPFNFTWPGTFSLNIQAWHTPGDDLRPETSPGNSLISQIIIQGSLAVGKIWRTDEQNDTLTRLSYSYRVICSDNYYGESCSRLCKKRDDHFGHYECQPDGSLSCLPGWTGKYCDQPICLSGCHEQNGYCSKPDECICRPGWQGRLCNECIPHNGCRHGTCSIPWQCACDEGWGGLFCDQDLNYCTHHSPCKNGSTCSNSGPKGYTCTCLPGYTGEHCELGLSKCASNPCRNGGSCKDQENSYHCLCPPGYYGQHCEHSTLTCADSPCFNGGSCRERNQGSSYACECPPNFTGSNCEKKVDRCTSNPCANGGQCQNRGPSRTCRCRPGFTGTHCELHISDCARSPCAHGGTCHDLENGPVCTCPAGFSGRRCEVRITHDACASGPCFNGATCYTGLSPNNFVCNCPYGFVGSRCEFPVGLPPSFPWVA
Description: binding ELISA, coated rmDLL4. The protocol:
(§1) In order to determine cross-reactivity to mouse DII4 a binding ELISA is performed. […] Wells are blocked with a casein solution (1% in PBS). VHHs are applied as dilution series and binding is detected using a mouse anti-myc (Roche) and an anti-mouse-AP conjugate (Sigma, St Louis, Mo., USA) (FIG. 7 A-H). As reference, binding to human DII4 is measured.

Test [3] addresses T1, recombinant human DLL4. The test is described as follows: competition AlphaScreen, biot-hDLL4/hNotch1-Fc. The protocol:
In brief, 1 nM biotinylated human DII4 is captured on streptavidin-coated donor beads (20 μg/mL), while 0.4 nM of the receptor human Notch1 (as a Fc fusion protein) is captured on anti-human Fc VHH-coated acceptor beads (20 μg/mL). Both loaded beads are incubated together with a dilution range of the competing VHH (FIG. 4 A-E).
(Alpha assays give light when donor and acceptor beads are brought close together.)

The target of test [4] is T4, cynomolgus DLL4 overexpressed on cells (cynomolgus, UniProt Q9NR61 27-685 (human entry)).
T4 construct: also called cyno DII4; cDLL4
T4 chain: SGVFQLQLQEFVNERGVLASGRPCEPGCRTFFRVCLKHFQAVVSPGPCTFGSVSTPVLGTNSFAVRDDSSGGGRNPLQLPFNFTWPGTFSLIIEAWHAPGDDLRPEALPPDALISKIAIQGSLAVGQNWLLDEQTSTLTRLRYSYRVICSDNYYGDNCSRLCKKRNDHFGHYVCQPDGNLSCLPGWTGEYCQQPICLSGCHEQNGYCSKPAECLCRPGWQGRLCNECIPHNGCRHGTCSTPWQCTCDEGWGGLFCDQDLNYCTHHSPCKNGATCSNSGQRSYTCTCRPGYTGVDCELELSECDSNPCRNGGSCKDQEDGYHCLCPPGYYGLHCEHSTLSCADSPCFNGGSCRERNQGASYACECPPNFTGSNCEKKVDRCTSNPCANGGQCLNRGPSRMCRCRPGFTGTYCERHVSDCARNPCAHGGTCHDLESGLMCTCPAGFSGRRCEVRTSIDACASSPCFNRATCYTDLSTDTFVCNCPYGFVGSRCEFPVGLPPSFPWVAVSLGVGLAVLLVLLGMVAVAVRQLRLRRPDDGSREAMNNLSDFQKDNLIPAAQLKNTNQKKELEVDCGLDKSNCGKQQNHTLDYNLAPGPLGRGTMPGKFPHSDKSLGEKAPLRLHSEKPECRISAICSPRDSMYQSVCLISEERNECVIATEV
Description: FACS titration on HEK293-cDLL4 cells, MCF. The protocol: (§2) In order to determine the cynomologus cross-reactivity of the VHHs, a FACS binding experiment is performed. Cynomolgus DII4 expressing HEK293 cells (transient or stable transfection) are used for a titration binding experiment of the VHHs. After a 30 minutes incubation on ice, all samples are washed and detection is performed by applying anti-c-myc˜Alexa647 (Santa Cruz Biotechnology, Santa Cruz, Calif., USA). Human and mouse DII4 overexpressing HEK293 cells are taken as reference. The mean MCF value is determined on the FACS Array and used for calculation of the EC₅₀ value (see FIG. 9 A-E).

In test [5] the target is T5, human DLL4 overexpressed on cells (human, UniProt Q9NR61 27-685).
T5 construct: full length human DLL4 on CHO or HEK293 cells; also called CHO-hDLL4; CHO-hDII4
The test is described as follows: competitive FMAT, hNotch1-Fc on CHO-hDLL4.

Test [6] has as its target T5, human DLL4 overexpressed on cells. The test is described as follows: cell-based or functional assay.
Test [7] concerns the target T1, recombinant human DLL4. The test is described as follows: SPR Biacore T100, hDLL4 on chip, VHH/Fab injected. The protocol: Kinetic analysis to determine the affinity of the DII4-VHH interaction is performed by Surface Plasmon Resonance (SPR) on a Biacore T100 instrument. […] Purified VHHs or Fab fragment are injected for 2 minutes at different concentrations (between 10 and 300 nM) and allowed to dissociate for 20 min at a flow rate of 45 μl/min. Between sample injections, the surfaces are regenerated with 10 mM glycine pH1.5 and 100 mM HCl. HBS-N (Hepes buffer pH7.4) is used as running buffer. If possible, data are evaluated by fitting a 1:1 interaction model (Langmuir binding) onto the binding curves. The affinity constant KD is calculated from resulting association and dissociation rate constants (kₐ) and […].
A general note: SPR reads the build-up and loss of mass on a sensor chip optically.

The target of test [8] is T1, recombinant human DLL4. Description: binding ELISA, coated rhDLL4. The protocol: as §1
The target of test [9] is T5, human DLL4 overexpressed on cells. The test is described as follows: FMAT, labelled hNotch1-Fc on CHO-hDLL4, periplasmic extract. The source says: (§3) All calculations are based on the FL1_total signal which comprises the average of the fluorescence per well times the number of counts per well.
Test [10] addresses T6, mouse DLL4 overexpressed on cells (mouse, UniProt Q9JI71 27-686).
T6 construct: whole, on cells; also called CHO-mDLL4; CHO-mDII4
The test is described as follows: FACS titration on HEK293-mDLL4 cells, MCF. The protocol:
as §2

The target of test [11] is T6, mouse DLL4 overexpressed on cells. The test is described as follows: competitive FMAT, hNotch1-Fc on CHO-mDLL4.
Test [12] has the same target. Description: FMAT, labelled hNotch1-Fc on CHO-mDLL4, periplasmic extract.
Excerpt: as §3

T6 sequence (Q9JI71 27-686): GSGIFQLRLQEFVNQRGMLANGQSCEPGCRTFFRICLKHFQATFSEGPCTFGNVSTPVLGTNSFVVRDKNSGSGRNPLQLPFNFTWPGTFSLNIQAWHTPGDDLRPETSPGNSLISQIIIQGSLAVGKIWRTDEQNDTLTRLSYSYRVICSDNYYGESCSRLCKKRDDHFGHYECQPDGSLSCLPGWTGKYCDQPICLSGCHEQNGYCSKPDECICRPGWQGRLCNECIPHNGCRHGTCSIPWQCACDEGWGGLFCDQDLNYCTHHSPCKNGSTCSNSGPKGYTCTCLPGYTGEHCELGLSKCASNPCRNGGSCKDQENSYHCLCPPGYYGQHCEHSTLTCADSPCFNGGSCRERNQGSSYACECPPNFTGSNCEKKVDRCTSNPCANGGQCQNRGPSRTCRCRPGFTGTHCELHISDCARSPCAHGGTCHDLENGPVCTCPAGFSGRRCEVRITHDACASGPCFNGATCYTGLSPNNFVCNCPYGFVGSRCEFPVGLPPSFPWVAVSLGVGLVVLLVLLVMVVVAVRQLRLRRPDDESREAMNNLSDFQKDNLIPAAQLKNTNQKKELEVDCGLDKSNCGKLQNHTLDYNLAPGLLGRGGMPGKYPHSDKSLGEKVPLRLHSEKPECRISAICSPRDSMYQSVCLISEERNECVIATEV

B1: VEGFDLLBII013 (bispecific antibody)
chain: EVQLVESGGGLVQTGDSLRLSCEVSGRTFSSYSMGWFRQAQGKEREFVVAISKGGYKYDSVSLEGRFTISKDNAKNTVYLQINSLKPEDTAVYYCASSRAYGSSRLRLADTYEYWGQGTQVTVSSGGGGSGGGGSGGGGCGGGGSGGGGSGGGGSGGGGSEVQLVESGGGLVQAGGSLRLSCAASGRTFSSYAMAWYRQAPGKEREYVAAIRWSGGTAYYADSVQGRFTISRDNAKNTVYLQMNSLKPEDTAVYYCANRAPDTRLAPYEYDHWGQGTQVTVSS
modifications: PEGylated 35gs, cys15 linker (PEG on the Cys at position 15 of the 35 Gly-Ser linker; size of the PEG not stated)
Turning to B1, in [1], the “IC50 (nM), DII4-mediated HUVEC proliferation assay, -HSA” value worked out at 2.06 nM. Besides, in the test with VEGF, the “% inhibition, VEGF HUVEC Erk phosphorylation assay, -HSA” value (shortened to “% inhibition”) came out at 95% and the “IC50 (nM), VEGF HUVEC Erk phosphorylation assay, -HSA” value amounted to 0.89 nM.

B2: VEGFDLLBII014 (bispecific antibody)
chain: EVQLVESGGGLVQTGDSLRLSCEVSGRTFSSYSMGWFRQAQGKEREFVVAISKGGYKYDSVSLEGRFTISKDNAKNTVYLQINSLKPEDTAVYYCASSRAYGSSRLRLADTYEYWGQGTQVTVSSGGGGSGGGSEVQLVESGGGLVQPGGSLRLSCVASGIRFMSMAWYRQAPGKHRELVARISSGGTTAYVDSVKGRFTISRDNSKNTVYLQMNSLKAEDTAVYYCNTFSSRPNPWGAGTQVTVSSGGGGSGGGGSGGGGCGGGGSGGGGSGGGGSGGGGSEVQLVESGGGLVQAGGSLRLSCAASGRTFSSYAMAWYRQAPGKEREYVAAIRWSGGTAYYADSVQGRFTISRDNAKNTVYLQMNSLKPEDTAVYYCANRAPDTRLAPYEYDHWGQGTQVTVSS
modifications: PEGylated 35gs, cys15 linker (PEG on the Cys at position 15 of the 35 Gly-Ser linker; size of the PEG not stated)
Consider B2, for which the “IC50 (nM), DII4-mediated HUVEC proliferation assay, -HSA” value in test [1] amounted to 0.53 nM. In the test with VEGF, the “% inhibition” value was 101% and the “IC50 (nM), VEGF HUVEC Erk phosphorylation assay, -HSA” value amounted to 0.53 nM.

B3: VEGFDLLBII015 (bispecific antibody)
chain: EVQLVESGGGLVQTGDSLRLSCEVSGRTFSSYSMGWFRQAQGKEREFVVAISKGGYKYDSVSLEGRFTISKDNAKNTVYLQINSLKPEDTAVYYCASSRAYGSSRLRLADTYEYWGQGTQVTVSSGGGGSGGGGSGGGGCGGGGSGGGGSGGGGSGGGGSEVQLVESGGGLVQPGGSLRLSCVASGIRFMSMAWYRQAPGKHRELVARISSGGTTAYVDSVKGRFTISRDNSKNTVYLQMNSLKAEDTAVYYCNTFSSRPNPWGAGTQVTVSSGGGGSGGGGSGGGGSGGGGSGGGGSGGGGSGGGGSEVQLVESGGGLVQAGGSLRLSCAASGRTFSSYAMAWYRQAPGKEREYVAAIRWSGGTAYYADSVQGRFTISRDNAKNTVYLQMNSLKPEDTAVYYCANRAPDTRLAPYEYDHWGQGTQVTVSS
modifications: PEGylated 35gs, cys15 linker (PEG on the Cys at position 15 of the 35 Gly-Ser linker; size of the PEG not stated)
For the molecule B3, the “IC50 (nM), DII4-mediated HUVEC proliferation assay, -HSA” value in test [1] was determined as 0.28 nM. In the test with VEGF, the “% inhibition” value worked out at 106% and the “IC50 (nM), VEGF HUVEC Erk phosphorylation assay, -HSA” value worked out at 0.4 nM.

B4: DLLBII62C11 (VHH)
VHH: EVQLMESGGGLVQPGGSLRLSCVAAGFTFSNYYMSWVRQAPGKGLEWVSVISPDGSNTYYADTVKGRFTISRGNAKNTLFLQMTGLKSEDAAVYYCARGSGSWGVHGQGTQVTVSS
Take B4: the IC50 with recombinant human DLL4 [2] amounted to 0.072 µM; in the test with recombinant human DLL4 [3], 0.0241 µM; in test [5], 0.172 µM; in test [11], 0.106 µM. Moreover, the binding result in the test with human Jagged-1 is reported as “no binding (tested: 5e-7 M)”; in [4] it was “no binding (tested: 1000 nM)”. The EC50 came to 0.0131 µM in the test with recombinant mouse DLL4 and 0.137 µM in the test with recombinant human DLL4 [8]. Further, in test [6], the “IC50, DLL4/Notch1 reporter assay” value is 4.66 µM. The Kd with recombinant human DLL4 [7] was 0.12 µM. Also, the koff with recombinant human DLL4 [7] is 0.13 s⁻¹. Further, in the test with recombinant human DLL4 [7], the kon was found to be 1.2e+06 M⁻¹ s⁻¹. In addition, the entries for the “% inh” value in test [9] and in test [12] were 74% and 71%, respectively. For the same molecule, in [10], the concentration for a half-maximal effect (EC50 (read off the curve)) is roughly 0.02 µM.

Values taken from patent US20140120095A1 (Boehringer Ingelheim, published 2014).
